Assay [1] addresses Recombinant human insulin oxidized by metal-catalyzed oxidation (copper(II)/ascorbate) (human). The assay can be described thus: SEC; insulin oxidized in 50 mM PB, pH 7.4, 3 h at room temperature; Insulin HMWP column, mobile phase 1 g/L L-arginine in water/acetonitrile/glacial acetic acid 65:20:15, which dissociates non-covalent aggregates; UV 276 nm; covalent dimers and oligomers only. A general note: In gel filtration, larger molecules generally elute earlier.

Assay [2] has the same target. Put plainly: SEC; insulin oxidized in 250 mM ammonium bicarbonate, pH 8.0, 3 h at room temperature (ammonia competes for Michael addition); same column and dissociating mobile phase; UV 276 nm; covalent aggregates only.
For assay [3] the target is unchanged. Put plainly: SEC; insulin oxidized in 50 mM sodium citrate, pH 3.0, then exchanged into 50 mM PB, pH 7.4, and left 12 h at room temperature; same column and dissociating mobile phase; UV 276 nm; covalent aggregates only.
For assay [4] the target is unchanged. The assay can be described thus: SEC; insulin oxidized in 50 mM sodium citrate, pH 3.0, 3 h at room temperature; same column and dissociating mobile phase; UV 276 nm; covalent aggregates only.

With “Recombinant human insulin oxidized by metal-catalyzed oxidation (copper(II)/ascorbate) (natural protein)”, the %Dimer (covalent) in assay [1] was 18.8%; in assay [2], 3.9%; in assay [3] it was 9.3%; in assay [4] it was 0.8%. The %HMWO (covalent high-molecular-weight oligomers) in assay [1] is 6.8%; in assay [3] it was 1.9%.

The values are drawn from paper PMC3399080.
